In patent publication EP3108897A1 (F. Hoffmann-La Roche AG, dated 2016):

Assays:
[1] = biological target: human wildtype CSF-1R (full-length) (human, UniProt P07333 20-972); assay: cell-based or functional assay
[2] = biological target: human mutant CSF-1R L301S Y969F (full-length) (human) (UniProt P07333); assay: cell-based or functional assay

Substance “Anti CSF-1R SC 2-4A5 (Santa Cruz Biotechnology, US) (antibody)” has an IC50 CSF-1R Phosphorylation (phospho/total CSF-1R ELISA on lysates of NIH3T3-CSF-1R cells stimulated with hu CSF-1) [1] of 1.01 µg/mL, a wtCSF-1R IC30 (CellTiterGlo viability of NIH3T3-wtCSF-1R spheroids, 3 days) [1] of 16.6 µg/mL and a Mutant CSF-1R IC30 (CellTiterGlo viability of NIH3T3-mutant CSF-1R spheroids, 3 days) [2] of 2.56 µg/mL.
“goat polyclonal anti-CSF-1R antibody ab10676 (abcam)” showed a wtCSF-1R IC30 (CellTiterGlo viability of NIH3T3-wtCSF-1R spheroids, 3 days) [1] of 14.2 µg/mL, a % inhibition of cell viability at 20 µg/ml (NIH3T3-mutant CSF-1R spheroids) [2] of 0% and a Mutant CSF-1R IC30 (CellTiterGlo viability of NIH3T3-mutant CSF-1R spheroids, 3 days) [2] of over 20 µg/mL.
